# Laboratory results taken from IntAct's records for PubMed 9853758.
# B1: Phosphate system positive regulatory protein PHO4 (Saccharomyces cerevisiae), P07270 (parent)
# chain: MGRTTSEGIHGFVDDLEPKSSILDKVGDFITVNTKRHDGREDFNEQNDELNSQENHNSSENGNENENEQDSLALDDLDRAFELVEGMDMDWMMPSHAHHSPATTATIKPRLLYSPLIHTQSAVPVTISPNLVATATSTTSANKVTKNKSNSSPYLNKRRGKPGPDSATSLFELPDSVIPTPKPKPKPKQYPKVILPSNSTRRVSPVTAKTSSSAEGVVVASESPVIAPHGSSHSRSLSKRRSSGALVDDDKRESHKHAEQARRNRLAVALHELASLIPAEWKQQNVSAAPSKATTVEAACRYIRHLQQNVST
# partner: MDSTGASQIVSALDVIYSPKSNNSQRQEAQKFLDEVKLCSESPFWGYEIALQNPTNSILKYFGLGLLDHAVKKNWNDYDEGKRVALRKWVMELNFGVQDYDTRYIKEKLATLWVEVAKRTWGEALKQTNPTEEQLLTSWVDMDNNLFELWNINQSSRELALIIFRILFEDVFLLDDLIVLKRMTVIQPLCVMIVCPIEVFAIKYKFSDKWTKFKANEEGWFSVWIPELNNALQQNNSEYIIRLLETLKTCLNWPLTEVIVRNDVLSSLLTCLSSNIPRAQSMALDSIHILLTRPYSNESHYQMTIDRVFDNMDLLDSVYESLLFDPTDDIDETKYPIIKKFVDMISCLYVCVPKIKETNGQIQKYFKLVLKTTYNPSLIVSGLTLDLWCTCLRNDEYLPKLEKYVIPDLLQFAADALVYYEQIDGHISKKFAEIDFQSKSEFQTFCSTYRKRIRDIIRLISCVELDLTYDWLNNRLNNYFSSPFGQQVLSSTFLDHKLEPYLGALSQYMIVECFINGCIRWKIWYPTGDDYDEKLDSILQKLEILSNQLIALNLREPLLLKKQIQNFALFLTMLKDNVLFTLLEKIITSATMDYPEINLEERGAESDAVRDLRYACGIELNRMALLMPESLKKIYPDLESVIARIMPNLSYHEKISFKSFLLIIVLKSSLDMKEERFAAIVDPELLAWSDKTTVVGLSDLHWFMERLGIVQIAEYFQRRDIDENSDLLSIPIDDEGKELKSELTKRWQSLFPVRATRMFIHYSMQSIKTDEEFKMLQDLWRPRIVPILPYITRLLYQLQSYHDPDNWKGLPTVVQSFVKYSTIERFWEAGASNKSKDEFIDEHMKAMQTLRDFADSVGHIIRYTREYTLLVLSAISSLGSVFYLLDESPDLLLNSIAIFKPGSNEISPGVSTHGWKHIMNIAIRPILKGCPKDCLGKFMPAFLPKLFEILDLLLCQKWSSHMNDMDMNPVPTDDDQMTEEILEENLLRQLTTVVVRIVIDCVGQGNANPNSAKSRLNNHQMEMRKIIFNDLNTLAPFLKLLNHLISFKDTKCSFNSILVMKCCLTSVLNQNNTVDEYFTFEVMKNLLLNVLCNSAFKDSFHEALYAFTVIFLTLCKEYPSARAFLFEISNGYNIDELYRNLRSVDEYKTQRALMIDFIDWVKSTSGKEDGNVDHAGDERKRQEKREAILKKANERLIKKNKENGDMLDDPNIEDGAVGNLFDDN
# Variants of: B1
# Details: with msn5_yeast MSN5, P52918
row,effect of a mutation on the interaction,Variant
1,disrupting interaction,S100A;S114A;S128A;S152A;S223A
